Values joined by “and” are separate entries in the source; they are usually repeats but may differ in a detail not shown here. Identical values can stand only once.
Details: Brassica napus, pH 7, 27 °C, GdnHCl, phosphate 0.02 M, transition: 3, reversible: Yes, whole UniProt chain shown

B1: Napin-1A wild type, P24565 (protein)
chain: QPQKCQREFQQEQHLRACQQWIRQQLAGSPFQSGPQEGPWLREQCCNELYQEDQVCVCPTLKQAAKSVRVQGQHGPFQSTRIYQIAKNLPNVCNMKQIGTCPFIAIPFFP
For B1, the denaturant m value (CD) was 1.8 kcal/mol/M and 1.2 kcal/mol/M, the unfolding free energy (CD) was 21.8 kJ/mol and 21.3 kJ/mol and the denaturant m value (Fluorescence) was 1.6 kcal/mol/M and 1.3 kcal/mol/M. The unfolding free energy (Fluorescence) was 21.8 kJ/mol and 21.3 kJ/mol.

— FireProtDB (doi:10.1016/j.bbapap.2007.04.008)
